The source of these data is the supplement of paper PMC12783771.

First the molecules themselves.
B1: library; numbered along this chain (parent)
chain: MNIQIGELAKRTACPVVTIRFYEQEGLLPPPGRSRGNFRLYGEEHVERLQFIRHCRSLDMPLSDVRTLLSYRKRPDQDCGEVNMLLDEHIRQVESRIGALLELKHHLVELREACSGARPAQSCGILQGLSDCVCDTRGTTAHPSD

Variants of B1 are the subject of data set [1]. Kind of data set: sfGFP reporter fluorescence (15 h) (µM FITC); higher = higher leak. The conditions noted are these: library round: Round 0; ligand: none. How it is done: (§1)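 Cell-free (BL21 Star DE3 extract, PANOx-SP) biosensing: 1 µL Echo-assembled reactions with linear PbrR variant templates (5 nM) and pPbrR-sfGFP reporter, with 1 µM Pb (lead chloride), 30 µM Zn (zinc acetate) or no ligand; endpoint sfGFP fluorescence after 15 h at 30 °C, calibrated as µM FITC. Round 0 library (alanine scan, site saturation, combinatorial) of PbrR from Cupriavidus metallidurans; 2 biological replicates.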

Data set [2] covers variants of B1. Kind of data set: sfGFP reporter fluorescence (15 h) (µM FITC); higher = stronger transcriptional activation. The conditions noted are these: library round: Round 0. On the procedure: as §1

± gives the standard deviation of the averaged measurements.

Take MNIQIGELAKRTACPVVTIRFYEQEGLLPPPGRSRGNFRLYGEEHVERLQFIRHCRSLDMPLSDVRTLLSYRKRPDQDCGEVNMLLDEHIRQVVSRIGALLELKHHLVELREACSGARPAQSCGILQGLSDCVCDTRGTTAHPSD: the sfGFP reporter fluorescence amounted to 0.059 ± 0.0042 in data set [1], 0.0847 ± 0.0052 in data set [2] (ligand: 1 µM Pb) and 0.739 ± 0.052 in data set [2] (ligand: 30 µM Zn).
The matching figures for MNIQIGELAKRTACPVVTIRFYEQEGLLPPPGRSRGNFRLYGEEHVERLQFIRHCRSLDMPLSDVRTLLSYRKRPDQDCGEVNMLLDEHIRQVESRIGALLELKHHHVELREACSGARPAQSCGILQGLSDCVCDTRGTTAHPSD: 0.05662 ± 0.00026, 0.0535 ± 0.0021 and 0.0821 ± 0.0015.
In the case of MNIQIGELAKRTACPVVTIRFYEQEGLLPPPGRSRDNFRLYGEEHVERLQFIRHCRSLDMPLSDVRTLLSYRKRPDQDCGEVNMLLDEHIRQVESRIGALLELKHHLVELREACSGARPAQSCGILQGLSDCVCDTRGTTAHPSD, the sfGFP reporter fluorescence in data set [1] is 0.0616; in data set [2] (ligand: 1 µM Pb), 0.0623 ± 0.0021; in data set [2] (ligand: 30 µM Zn) it was 0.0695 ± 0.0018.
On to MNIQIGELAKRTACPVVTIRFYEQEGLLPAPGRSRGNFRLYGEEHVERLQFIRHCRSLDMPLSDVRTLLSYRKRPDQDCGEVNMLLDEHIRQVESRIGALLELKHHLVELREACSGARPAQSCGILQGLSDCVCDTRGTTAHPSD, for which the sfGFP reporter fluorescence in data set [1] was determined as 0.0623 ± 0.001; in data set [2] (ligand: 1 µM Pb), 0.0748 ± 0.001; in data set [2] (ligand: 30 µM Zn), 0.681 ± 0.087.
As for MNIQIGELAKRTACPVVTIRFYEQEGLLPPPGRSRGNFRLYGEEHVERLQFIRHCRSLDMPLSDVRTHLSYRKRPDQDCGEVNMLLDEHIRQVESRIGALLELKHHLVELREACSGARPAQSCGILQGLSDCVCDTRGTTAHPSD, the sfGFP reporter fluorescence amounted to 0.0623 ± 0.0026 in data set [1], 0.0577 ± 0.0013 in data set [2] (ligand: 1 µM Pb) and 0.0795 ± 0.0015 in data set [2] (ligand: 30 µM Zn).
Take MNIQIIELAKRTACPVVTIRFYEQEGLLPPPGRSRGNFRLYGEEHVERLQFIRHCRSLDMPLSDVRTLLSYRKRPDQDCGEVNMLLDEHIRQVESRIGALLELKHHLVELREACSGARPAQSCGILQGLSDCVCDTRGTTAHPSD: the figures for the sfGFP reporter fluorescence in data set [1], in data set [2] (ligand: 1 µM Pb) and in data set [2] (ligand: 30 µM Zn) were 0.05846 ± 0.00026, 0.0585 ± 0.0023 and 0.0618 ± 0.0018, respectively.
Consider MNIQIGELAKRTACPVVTIRFYEQEGLLPPPGRSRGNFRLYGEEHVERLQFIRHCRSLDMPLSDVRTLLSYRKRPDQDCGEVNMLLDEHIRQVESRIGALLELKHHLVELREACSGARPAQSCGTLQGLSDCVCDTRGTTAHPSD, for which the sfGFP reporter fluorescence stood at 0.0585 ± 0.0023 in data set [1], 0.0566 ± 0.0013 in data set [2] (ligand: 1 µM Pb) and 0.06414 ± 0.00052 in data set [2] (ligand: 30 µM Zn).
